B1: CARD9^2−97 (CARD9 CARD alone), wild type [human] / itself (parent)
chain: SDYENDDECWSVLEGFRVTLTSVIDPSRITPYLRQCKVLNPDDEEQVLSDPNLVIRKRKVGVLLDILQRTGHKGYVAFLESLELYYPQLYKKVTGK

In the assay the parent is B1. In words: polymerization assay (absorbance at 350 nm). The following applies: with itself; 1 mM D43R/K58D + EDTA (parent trace is 150 uM WT + EDTA); 50 mM Tris, 150 mM NaCl, 0.5 mM TCEP, pH 7.0; 25 °C; read off a plot.
Regarding chain 1 D42R K57D, the response worked out at 1.7 A350.

Source of the values: paper PMC6624267.
